# Results taken from the supplement of paper PMC9732359.
# ± gives the uncertainty stated by the source.
# Assay: protein stability index of a GFP-peptide fusion (yeast GPS) (PSI 1-4); higher = more stable; sorted into four equal gates, so the index is relative within each strain
# Settings: san1∆
# Outline: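 Tiled 17-residue yeast protein peptides were fused downstream of GFP in a plasmid that also expresses Cherry, and the pooled library was carried in yeast. Mid-log cultures in leucine-free medium were sorted into four equal gates by GFP/Cherry fluorescence ratio, and plasmids from each gate were PCR-amplified and Illumina-sequenced, with reads assigned to strains by barcodes. The protein stability index for each peptide was each gate's read frequency times its gate number, summed.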
row,Sequence,protein stability index
1,IWLLSYIQYLGHLPEVS [ECM29],2.21 ± 0.063

# Same assay, conditions: ubr1∆
row,Sequence,protein stability index
1,IKNLPADVSKLMYSITF [SRB2],2.76 ± 0.047
2,IKNVQDLLILTRSIKEK [SRB6],1.76 ± 0.2
3,IKSIIEQRKQKLSKILP [SMC3],2.82 ± 0.078
4,IKTVVLVPQLGHVGSVQ [PRP8],2.35 ± 0.041
5,IKVEGAVGNLGNAVTVT [RPL22A],3.06 ± 0.079
6,IKVWTIKGQCLATLLGH [ASC1],1.39 ± 0.057
7,ILADEMGLGKTLQTISF [ISW2],2.77 ± 0.061
8,ILDINVSSSKNKKSEEN [SWP82],3.27 ± 0.079
9,ILDKIFYGVLDQGNGWL [RPN6],3.11 ± 0.061
10,ILEVGALASIQTFNFDS [RPN12],2.86 ± 0.077
11,ILGELKRVKSYMDKAKQ [LRP1],2.36 ± 0.065
12,ILKDLIYRGVLNDENSD [SMC1],2.21 ± 0.066
13,ILLRYHHNDISNDSQSH [YCG1],1.51 ± 0.081
14,ILQQRSKINSTELLDYA [MED4],2.97 ± 0.11
15,ILRKELSEEKEVIFTDV [MCD1],2.73 ± 0.17
16,ILSLATEGCIGLSQTEA [MCD1],2.4 ± 0.062
17,ILSQQFDKIIKIREDHI [SRB8],2.84 ± 0.054
18,ILTPESQLKKTKAQQKT [RPL7B],2.86 ± 0.048
19,ILTREVQNSTLAQLTSK [RPS1B],2.45 ± 0.04
20,ILVDSLTGNQLPTPTPT [SWI1],2.73 ± 0.045
21,IMATNRLDILDPALLRP [RPT6],3.25 ± 0.057
22,IMDELLSSIAERVRNFA [DIB1],2.17 ± 0.082
23,IMKIGGIKLQMQNSKVE [SMC4],2.1 ± 0.12
24,IMKNKDFILSLLHHVSE [YJL039C/NUP192],2.52 ± 0.065
25,IMNVLSEGFEPTFSTHA [PRP8],2.67 ± 0.069
26,INGINWRFHTPQKYVLH [SIN4],1.97 ± 0.042
27,INIQSFKDVEHISFNFS [BRR2],2.75 ± 0.061

row,Sequence,protein stability index
1,INKIVEILTNQQRGITY [YGR119C/NUP57],2.09 ± 0.065
2,INKYESSPSHIELVVTE [RPL17A],2.17 ± 0.036
3,INNNINIPQQQQMQPPN [GAL11],2.84 ± 0.056
4,INQINEAHPTKVKNFGV [RPL20A],2.85 ± 0.038
5,INTLNGGSSDTADKIRI [GAL11],1.4 ± 0.066
6,IPAAGNNRSVSMQTIAE [SRB5],3.3 ± 0.07
7,IPAGIYWYWWKNGNEYN [QCR8],2.04 ± 0.089
8,IPATIFDKVIYHLHPTF [TAF14],2.78 ± 0.057
9,IPHDLNFLQESYEVEHV [TAF14],3.12 ± 0.056
10,IPKQLLDDEKIFSQTTN [YJL039C/NUP192],3.1 ± 0.052
11,IPMSKTIKDLVGGKSTV [FAS2],3.04 ± 0.06
12,IPSSKIDDFTTRLWGSV [SNU114],3.21 ± 0.12
13,IPSSYIKRTDEGGEAEF [ARP7],3.45 ± 0.051
14,IPTNPVDNENNKPAIKE [SWI3],3.21 ± 0.068
15,IPVKLLNEAQGHIVSLE [SMD3],3.08 ± 0.11
16,IQELEDQRDELLEQKKS [ITC1],3.31 ± 0.061
17,IQIMANIDQEGSKQADR [PGD1],3.08 ± 0.04
18,IQKEEEPENNTVIEGVK [SWI3],3.25 ± 0.053
19,IQNQSPQFNSPYDSNNS [SWI1],2.82 ± 0.046
20,IQRETLLPTNNGQPLNQ [GRR1],2.65 ± 0.057
21,IRCHREDCDLVIMALML [POP5],2.81 ± 0.047
22,IRDNKLVSEKIINSTAL [RPC82],3.14 ± 0.11
23,IRDSGDRIDLRYSKRAG [RPO21],3.27 ± 0.19
24,IREKVAKQALDLYHFAL [SNF2],2.54 ± 0.056
25,IRGNLMGKRVDFSARTV [RPO21],2.5 ± 0.26
26,IRINDEPILGQITLTFI [YML103C/NUP188],2.25 ± 0.048
27,IRQYALATAHIYLSRFL [SSN8],1.11 ± 0.04

row,Sequence,protein stability index
1,IRRLRVLRRLLAKYRDA [RPL19A],1.25 ± 0.057
2,IRRTFNIVNDFTPEEEA [SKP1],3.08 ± 0.041
3,IRSVALNDSNVKSFKPH [RRP42],2.98 ± 0.13
4,ISAKDMGQGLCNNINKG [BRR2],3.26 ± 0.24
5,ISALTQTEIKDIILGQN [PRP8],1.99 ± 0.052
6,ISAPSMEDEILSLGMDF [BRN1],3.12 ± 0.044
7,ISEINFLHESSFDSIDH [CSI1],2.84 ± 0.041
8,ISEKDLVPKRCLFESLS [RPO31],3.03 ± 0.095
9,ISEVMEDRNQRIKEMYW [FAS1],2.97 ± 0.12
10,ISGYKKFSSTSRYMQYN [RPT1],1.7 ± 0.11
11,ISIPKTCDEIQNFENDF [REC8],2.85 ± 0.046
12,ISIYNMLPPKSVKFTHI [SSN2],2.29 ± 0.034
13,ISKHSKQAIYTRAAASE [RPS25B],2.86 ± 0.041
14,ISLAVEGEPVNSPNYFV [COR1],1.99 ± 0.065
15,ISLSVHTLALEFVNGGK [RRP46],2.66 ± 0.079
16,ISMILRNISFSDNNSRI [SWI1],3.08 ± 0.04
17,ISNKDVIFKIRDRTSGQ [SRB4],3.14 ± 0.11
18,ISNVIKPNQTIMVLDAS [SRP54],2.67 ± 0.059
19,ISPDPNLSIDEVAVPDR [RPO31],2.95 ± 0.049
20,ISPSAPSKDSFTKYKPA [YAR002W/NUP60],2.98 ± 0.042
21,ISSLMFDEEFDPFKTSS [IRR1],2.99 ± 0.26
22,ISTACPRLDDVVVDTVE [SMC4],3.46 ± 0.093
23,ISTAKAWGALITTFVKR [YML103C/NUP188],1.66 ± 0.058
24,ISTSFCFICLLHLANEH [BRN1],1.35 ± 0.13
25,ISVARKIYDAFPQTAML [DIS3],2.36 ± 0.089
26,ITARSAFVEFGASVIAG [SWP82],2.21 ± 0.054
27,ITASTLLYADSLTAEAM [CYT1],2.18 ± 0.039

row,Sequence,protein stability index
1,ITHAHSLSNPNSTATMQ [PGD1],2.86 ± 0.043
2,ITHRDLHYDKDYNLRIY [SSN8],2.18 ± 0.04
3,ITHTENYNDLIVNYEDL [BRN1],3.2 ± 0.072
4,ITIFSPEGRLYQVEYAF [SCL1],2.37 ± 0.068
5,ITKVTENLFSKEEVCQG [YMR129W/POM152],3.06 ± 0.082
6,ITLALADAGIELVDMAG [MTR3],2.12 ± 0.075
7,ITLRGVENIERVVMMKY [RPO21],2.19 ± 0.076
8,ITSFLLSKMENVNLDDY [NAS6],1.85 ± 0.057
9,ITSIMDDLALPYQHPPN [ITC1],3.22 ± 0.048
10,ITSLQDSSSQCIVDFTN [YMR129W/POM152],2.85 ± 0.059
11,ITVHAPLLPIVEELMKK [SNU114],2.7 ± 0.055
12,IVALTNAKDKERLQLLE [SMC3],3.21 ± 0.11
13,IVGKKIQEFLVVIEKRR [GRR1],3.12 ± 0.055
14,IVISLKNTMFEKSDALV [SMC1],2.47 ± 0.042
15,IVKRLYEYGAVSVLLIS [BRR2],1.64 ± 0.054
16,IVKTTTKQRLDAYYDLE [PRP8],3.19 ± 0.044
17,IVLDEVRNKSYPVYTRL [DIS3],1.69 ± 0.027
18,IVMEDHGVLQGTSQNYG [MED1],3.07 ± 0.049
19,IVPGTYIQERNPSQRPQ [RPS10B],3.26 ± 0.038
20,IVQAKEPNLAAQQDSTN [ECM29],2.75 ± 0.063
21,IVVAMTGKDCVAIACDL [PUP3],2.31 ± 0.046
22,IVVVIEIITSLSMRFQR [SRB8],2.06 ± 0.087
23,IWKESLIELSGGQRSLI [SMC2],1.56 ± 0.12
24,IWLLSYIQYLGHLPEVS [ECM29],1.92 ± 0.057
